Source: the supplement of paper PMC7877785
± gives the uncertainty stated by the source.

Test: self-splicing fitness, log relative to wild type (ln ratio); higher = more splicing; Tetrahymena group I intron in knt gene, E. coli kanamycin selection, DiMSum; sequences stand for … in CUCUCU…GGAGGGAAAAGUUAUCAGGCAUGCACCUGGUAGCUAGUCUUUAAACCAAUAGAUUGCAUCGGUUUAAAAGGCAAGACCGUCAAAUUGCGGGAAAGGGGUCAACAGCCGUUCAGUACCAAGUCUCAGGGGAAACUUUGAGAUGGCCUUGCAAAGGGUAUGGUAAUAAGCUGACGGACAUGGUCCUAACCACGCAGCCAAGUCCUAAGUCAACAGAUCUUCUGUUGAUAUGGAUGCAGUUCACAGACUAAAUGUCGGUCGGGGAAGAUGUAUUCUUCUCAUAAGAUAUAGUCGGACCUCUCCUUAAUGGGAGCUAGCGGAUGAAGUGAUGCAACACUGGAGCCGCUGGGAACUAAUUUGUAUGCGAAAGUAUAUUGAUUAGUUUUGGAGUACUCGUGGUCG
How it was run: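 A randomised library covering all eight P1ex-region intron nucleotides was built with the intron in the knt kanamycin-resistance gene on pET-22b(+) and held in E. coli BL21(DE3). Cells were grown overnight at 37°C or 30°C on LB agar, with or without 25 μg/mL kanamycin, plus 100 μg/mL carbenicillin, 50 μM IPTG and 0.2% rhamnose, and pooled colonies were amplicon-sequenced on an Illumina HiSeq 2500. DiMSum fitness is the error-weighted combination of wild-type-normalised replicate fold changes, kanamycin versus none.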

| Sequence | self-splicing fitness (ln) (30 °C) | self-splicing fitness (ln) (37 °C) |
| --- | --- | --- |
| CUGCAGCAAUAUUACGGAUU | -3.49 ± 0.18 | -1.8 ± 0.16 |
| UGGUAGCAAUAUUACGUGGU | -4.36 ± 0.28 | -2.7 ± 0.36 |
| GAACAGCAAUAUUACGGUUC | -3 ± 0.14 | -2.93 ± 0.22 |
| GCAAAGCAAUAUUACGUCCC | -0.828 ± 0.14 | -0.697 ± 0.098 |
| CGGCAGCAAUAUUACGAUCC | -2 ± 0.13 | -1.03 ± 0.21 |
| AAGAAGCAAUAUUACGACCU | 0.116 ± 0.099 | -0.338 ± 0.11 |
| GUGAAGCAAUAUUACGUAUA | -1.53 ± 0.077 | -0.347 ± 0.1 |
| CGAAAGCAAUAUUACGUGGC | -0.949 ± 0.12 | -3.21 ± 0.32 |
| CUCAAGCAAUAUUACGUGAA | -0.683 ± 0.077 | -0.629 ± 0.12 |
| CUUAAGCAAUAUUACGUAGA | -3.6 ± 0.22 | -2.82 ± 0.34 |
| GGGUAGCAAUAUUACGGUUU | -0.176 ± 0.068 | 0.138 ± 0.099 |
| AAUAAGCAAUAUUACGGCUA | 0.107 ± 0.1 | 0.0369 ± 0.13 |
| AGGGAGCAAUAUUACGGCGG | -2.87 ± 0.21 | -2.73 ± 0.3 |
| CGCCAGCAAUAUUACGUCGC | -3.23 ± 0.16 | -2.11 ± 0.2 |
| UAUAAGCAAUAUUACGCAUU | -2.15 ± 0.21 | -0.414 ± 0.14 |
| UCGCAGCAAUAUUACGCUAU | -5.08 ± 0.36 | -3 ± 0.17 |
| CCGAAGCAAUAUUACGCGAA | – | -2.24 ± 0.2 |
| UAGCAGCAAUAUUACGGAUG | -1.19 ± 0.073 | -0.912 ± 0.079 |
| GUGGAGCAAUAUUACGCGUA | -2.14 ± 0.36 | -0.34 ± 0.25 |
| CCCUAGCAAUAUUACGCUAA | -4.17 ± 0.3 | -2.55 ± 0.22 |
| GAUCAGCAAUAUUACGGAGU | -1.16 ± 0.077 | -0.717 ± 0.11 |
| UUGAAGCAAUAUUACGAAGG | -1.42 ± 0.13 | -0.248 ± 0.17 |
| AAUGAGCAAUAUUACGAUGU | -2.94 ± 0.15 | -1.97 ± 0.17 |
| CAGAAGCAAUAUUACGAUGC | -4.82 ± 0.42 | -2.92 ± 0.35 |

| Sequence | self-splicing fitness (ln) (30 °C) | self-splicing fitness (ln) (37 °C) |
| --- | --- | --- |
| UGUUAGCAAUAUUACGCGUC | -3.45 ± 0.33 | -2.79 ± 0.36 |
| UGCAAGCAAUAUUACGAGAA | -2.52 ± 0.47 | -1.94 ± 0.27 |
| AUAAAGCAAUAUUACGUAGU | -1.9 ± 0.12 | -0.946 ± 0.17 |
| UUUGAGCAAUAUUACGUAUC | -4 ± 0.29 | -2.45 ± 0.23 |
| UGGAAGCAAUAUUACGGCAA | -1.72 ± 0.39 | 0.0721 ± 0.21 |
| UCCUAGCAAUAUUACGGAGG | -2.63 ± 0.17 | -1.73 ± 0.2 |
| AUGGAGCAAUAUUACGUCCG | -1.29 ± 0.12 | -1.06 ± 0.13 |
| GAUCAGCAAUAUUACGGCCC | -1.65 ± 0.21 | -0.61 ± 0.2 |
| AGACAGCAAUAUUACGCUUC | -3.78 ± 0.28 | -1.86 ± 0.27 |
| CUGGAGCAAUAUUACGUGCU | -2.27 ± 0.23 | -2.91 ± 0.34 |
| CCGCAGCAAUAUUACGUAAA | -4.2 ± 0.25 | -2.62 ± 0.2 |
| UAACAGCAAUAUUACGUACG | -0.675 ± 0.047 | -0.193 ± 0.069 |
| GCGAAGCAAUAUUACGGGGC | -3.1 ± 0.24 | -1.82 ± 0.23 |
| AUUAAGCAAUAUUACGGUUG | -3.08 ± 0.21 | -2.56 ± 0.24 |
| UUCUAGCAAUAUUACGCAGA | -2.04 ± 0.32 | -1.1 ± 0.23 |
| CGCGAGCAAUAUUACGGAGA | -2.25 ± 0.23 | -2.3 ± 0.33 |
| CCAUAGCAAUAUUACGUAUG | -3.88 ± 0.15 | -2.19 ± 0.13 |
| UACGAGCAAUAUUACGAGUG | -1.86 ± 0.07 | -1.74 ± 0.1 |
| ACGAAGCAAUAUUACGAUCU | -0.659 ± 0.081 | -0.244 ± 0.082 |
| GCGUAGCAAUAUUACGGGGA | -2.23 ± 0.32 | -2.89 ± 0.35 |
| UCAUAGCAAUAUUACGUAUU | -2.48 ± 0.22 | -2.85 ± 0.27 |
| GAGCAGCAAUAUUACGCCGU | -1.39 ± 0.12 | -0.525 ± 0.19 |
| GCAUAGCAAUAUUACGCGAC | -2.79 ± 0.16 | 0.0921 ± 0.13 |
| CAGAAGCAAUAUUACGGUAU | -3.21 ± 0.19 | -2.47 ± 0.22 |
